Km for cyt c (low-affinity phase), steady-state oxygen consumption of mitos, 1.25-350 μM cyt c, 25°C, pH 6.6, 50 mM KCl, 0.05% DDM and Km for cyt c (low-affinity phase of biphasic kinetics), steady-state oxygen consumption of mitos, 1.25-350 μM cyt c, 25°C, pH 6.6, 50 mM KCl, 0.05% DDM data for three substances are collected here from PMC4255728.

The target of assay [1] is Saccharomyces cerevisiae cytochrome c oxidase, 5A isoenzyme (strain WTCOX5A) (S. cerevisiae) (UniProt P00401).
In assay [2] the target is Saccharomyces cerevisiae cytochrome c oxidase, 5B isoenzyme (strain ΔROX1ΔCOX5A, COX5B under its own promoter) (S. cerevisiae) (UniProt P00401).
Assay [3] deals with Saccharomyces cerevisiae cytochrome c oxidase, 5B isoenzyme (strain COX5B, COX5B downstream of the COX5A promoter) (S. cerevisiae) (UniProt P00401).

In the case of “Horse heart cytochrome c (from UniProt P00004 1-105) (natural protein)”, the Km for cyt c (low-affinity phase), steady-state oxygen consumption of mitos, 1.25-350 μM cyt c, 25°C, pH 6.6, 50 mM KCl, 0.05% DDM was 13.9 μM in assay [1], 10.8 μM in assay [2] and 14.5 μM in assay [3].
On to “Yeast iso-1 cytochrome c (isoform-1) (from UniProt P00044 1-109) (natural protein)”, for which the Km for cyt c (low-affinity phase of biphasic kinetics), steady-state oxygen consumption of mitos, 1.25-350 μM cyt c, 25°C, pH 6.6, 50 mM KCl, 0.05% DDM in assay [1] is 29.8 μM; in assay [2], 41.2 μM; in assay [3], 39.5 μM.
In the case of “Yeast iso-2 cytochrome c (isoform-2) (from UniProt P00045 1-113) (natural protein)”, the Km for cyt c (low-affinity phase of biphasic kinetics), steady-state oxygen consumption of mitos, 1.25-350 μM cyt c, 25°C, pH 6.6, 50 mM KCl, 0.05% DDM is 23.9 μM in assay [1], 47.8 μM in assay [2] and 59.5 μM in assay [3].
